Test results: article PMC5794803, “IGFBPL1 Regulates Axon Growth through IGF-1-mediated Signaling Cascades” (Scientific Reports, 2018)

Molecular target: recombinant mouse IGF-1 (insulin-like growth factor 1) (mouse, UniProt P05017 49-118)
Assay: cell-based or functional assay

Sequence of recombinant mouse IGF-1 (insulin-like growth factor 1) (P05017 49-118): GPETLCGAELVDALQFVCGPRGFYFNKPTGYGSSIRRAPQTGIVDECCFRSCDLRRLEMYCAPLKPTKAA

B1: recombinant mouse IGFBPL1 (insulin-like growth factor binding protein-like 1) (natural protein, UniProt Q80W15 18-270, looked up)
chain: LGLRDAGRRHPECSPCQQDRCPAPSPCPAPWISARDECGCCARCLGAEGASCGGPVGSRCGPGLVCASRASGTAPEGTGLCVCAQRGAVCGSDGRSYSSICALRLRARHAPRAHHGHLHKARDGPCEFAPVVLMPPRDIHNVTGTQVFLSCEVKAVPTPVITWKKVKHSPEGTEGLEELPGDHVNIAVQVRGGPSDHETTSWILINPLRKEDEGVYHCHAANAIGEAQSHGTVTVLDLNRYKSLYSSVPGDLL
  PI3K phosphorylation (Western blot) in P10 RGCs after co-administration of IGF-1 and IGFBPL1, compared to the control group: 6 fold
  mTOR phosphorylation (Western blot) in P10 RGCs after co-administration of IGF-1 and IGFBPL1, compared to the control group: 3 fold
